Literature values in paper PMC6302113.
pKd: −log10 of the molar value.

Biological target: IL-22 (Homo sapiens) (UniProt Q9GZX6)
UniProt Q9GZX6, sequence (Q9GZX6 34-179): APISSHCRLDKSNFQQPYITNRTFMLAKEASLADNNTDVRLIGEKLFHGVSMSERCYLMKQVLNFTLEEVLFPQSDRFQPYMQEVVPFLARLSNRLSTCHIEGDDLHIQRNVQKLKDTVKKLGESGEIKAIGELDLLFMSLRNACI

pKd: 12.00
Substance: IL-22BPi2 (from UniProt Q969J5)
